This note sets out measurements from article PMC6582314, “Ligands Exert Biased Activity to Regulate Sigma 1 Receptor Interactions With Cationic TRPA1, TRPV1, and TRPM8 Channels” (Frontiers in Pharmacology, 2019).

Conditions in all cases: both partners purified
In experiment [1] the target is T1, TRPA1 N-terminal cytosolic region (aa 1-721), GST-tagged (mouse, UniProt Q8BLA8 1-721).
T1 construct: transient receptor potential ankyrin member 1, mouse, NP_808449, residues 1-721; Vector carries GST/HaloTag and a TEV site; also called TRPA1 N-terminus; TRPA1 N-terminal domain; source: E. coli BL21 (KRX), purified (GStrap FF or HaloLink Resin); not shown: GST, N-terminal, kept
The experiment can be described thus: pull-down; TRP sequence (100 nM) covalently attached to NHS-activated Sepharose 4FF; prey 200 nM; 200 µL 50 mM Tris-HCl pH 7.5, 0.2% CHAPS, with 3 mM CaCl2; 30 min at RT, three washes; Western blot. A general note: A western blot detects proteins with antibodies after separation by electrophoresis.

The target in experiment [2] is T2, TRPM8 N-terminal cytosolic region (aa 1-639), GST-tagged (mouse, UniProt Q8R4D5 1-639).
T2 construct: transient receptor potential melastatin member 8, mouse, NP_599013, residues 1-639; also called TRPM8 N-terminus; source: E. coli BL21 (KRX), purified (GStrap FF or HaloLink Resin); not shown: GST, N-terminal, kept
The experiment is described as above.

In experiment [3] the target is T1, TRPA1 N-terminal cytosolic region (aa …). In words: pull-down; competition: immobilised TRP sequence with CaM or HINT1 and increasing concentrations of σ1R (up to 200 nM), 3 mM CaCl2; bound CaM or HINT1 by Western blot, relative to no σ1R.

B1: sigma 1 receptor (σ1R), full-length murine, GST-free (natural protein, mouse, UniProt O55242 1-223, looked up)
chain: MPWAAGRRWAWITLILTIIAVLIQAAWLWLGTQNFVFSREEIAQLARQYAGLDHELAFSRLIVELRRLHPGHVLPDEELQWVFVNAGGWMGAMCILHASLSEYVLLFGTALGSHGHSGRYWAEISDTIISGTFHQWKEGTTKSEVFYPGETVVHGPGEATALEWGPNTWMVEYGRGVIPSTLFFALADTFFSTQDYLTLFYTLRAYARGLRLELTTYLFGQDS
notes: sigma 1 receptor, mouse, GenBank AF004927, coding region of the full-length protein; 223 amino acids; also called type 1 sigma receptor; source: E. coli BL21 (KRX), purified (GStrap FF or HaloLink Resin, cleaved with ProTEV protease, ion exchange); not shown: GST, N-terminal, cleaved
For the molecule B1, the binding result in experiment [1] and in experiment [2] was “binds” in each case.

B2: histidine triad nucleotide-binding protein 1 (HINT1), murine, GST-free (natural protein, mouse, UniProt P70349 1-126, looked up)
chain: MADEIAKAQVAQPGGDTIFGKIIRKEIPAKIIFEDDRCLAFHDISPQAPTHFLVIPKKHISQISVADDDDESLLGHLMIVGKKCAADLGLKRGYRMVVNEGADGGQSVYHIHLHVLGGRQMNWPPG
notes: source: E. coli BL21 (KRX), purified (GStrap FF or HaloLink Resin, cleaved with ProTEV protease, ion exchange); not shown: GST, N-terminal, cleaved
As for B2, the binding result in experiment [2] and in experiment [3] was “binds” in each case.
